Key:
[1] = target: T1, AMA1 (apical membrane antigen 1) domains I+II (Plasmodium falciparum 3D7, UniProt Q7KQK5); experiment: crystal structure; AMA1 domains I+II and 1F9 Fab mixed (Fab in slight excess); 20 mM MES pH 6.0, 10 mM MnCl2, 6% PEG 3350, hanging drops; two crystal forms; settings: both partners purified
T1 construct: also called AMA1 domains I+II

[2] = target: T2, 3D7 AMA1 domain I expressed on M13 phage (Plasmodium falciparum 3D7, UniProt Q7KQK5); experiment: ELISA; settings: one partner purified
T2 construct: also called 3D7 domain I; domain I AMA1

[3] = target: T3, Full-length 3D7 AMA1 ectodomain (Plasmodium falciparum 3D7, UniProt Q7KQK5); experiment: ELISA; competition ELISA: 100 ul of 0.3 ug/ml full-length AMA1 ectodomain immobilised on plastic; dilutions of human plasma added, followed by 10 ul of 3.0 ug/ml mAb; peroxidase-conjugated anti-mouse antibodies; settings: both partners purified
T3 construct: also called recombinant full-length 3D7 AMA1 ectodomain; full-length recombinant AMA1

B1: 1F9 Fab fragment (Fab, V domains shown)
VH: EVQLQQSGAELLRPGASVKLSCIVSGFKIKDTSMHWVKQRPEQGLEWIGRIDPANDNSEYDPKFQGKATITADTSSNTAYLQLSSLTSEDTAVYYCTLSHFWGQGTTLTVSS
VL: SIVMTQTPKFLPVSAGDRVTIICKASQSVSNDVVWYQQKPGQSPKLLIYYASIRYTGVPDRFTGSGYGTDFTFTISTVQVEDLAVYFCQQGFSSPRTFGGGTKLEIN
notes: also called Fab 1F9
binding result [1]: binds

B2: Mouse monoclonal antibody 1F9 (isotype IgG2b with a Kappa light chain) (antibody, V domains shown)
VH: B1 VH
VL: B1 VL
notes: also called mAb 1F9
binding result [2]: binds | binding result [3]: binds
